B1: 3131 AM2-1 (Fab, V domains shown)
VH: EVQLVESGGGLVQPGGSLRLSCAASGFNLYYSSMHWVRQAPGKGLEWVASIYSSYGYTYYADSVKGRFTISADTSKNTAYLQMNSLRAEDTAVYYCARSSFSHGYGWYGLDYWGQGTLVTVSS
VL: DIQMTQSPSSLSASVGDRVTITCRASQSVSSAVAWYQQKPGKAPKLLIYSASSLYSGVPSRFSGSRSGTDFTLTISSLQPEDFATYYCQQYGYHHAGLITFGQGTKVEIK
notes: Fab
B2: 3131 AM2-6 (Fab, V domains shown)
VH: EVQLVESGGGLVQPGGSLRLSCAASGFNLYYSSMHWVRQAPGKGLEWVASIYSSHGGTNYADSVKGRFTISADTSKNTAYLQMNSLRAEDTAVYYCARSSFSHGYGWYGLDYWGQGTLVTVSS
VL: DIQMTQSPSSLSASVGDRVTITCRASQSVSSAVAWYQQKPGKAPKLLIYSASSLYSGVPSRFSGSRSGTDFTLTISSLQPEDFATYYCQQYGYHYAGLITFGQGTKVEIK
notes: Fab
B3: 3131 AM2-13 (Fab, V domains shown)
VH: EVQLVESGGGLVQPGGSLRLSCAASGFNLYYSSMHWVRQAPGKGLEWVASIYSSYGYTYYADSVKGRFTISADTSKNTAYLQMNSLRAEDTAVYYCARSSFSHGYGWYGLDYWGQGTLVTVSS
VL: DIQMTQSPSSLSASVGDRVTITCRASQSVSSAVAWYQQKPGKAPKLLIYSASSLYSGVPSRFSGSRSGTDFTLTISSLQPEDFATYYCQQYGYHDAGLITFGQGTKVEIK
notes: Fab
B4: 3131 AM2-5 (Fab, V domains shown)
VH: EVQLVESGGGLVQPGGSLRLSCAASGFNLYYSSMHWVRQAPGKGLEWVASIYSSSGDTHYADSVKGRFTISADTSKNTAYLQMNSLRAEDTAVYYCARSSFSHGYGWYGLDYWGQGTLVTVSS
VL: DIQMTQSPSSLSASVGDRVTITCRASQSVSSAVAWYQQKPGKAPKLLIYSASSLYSGVPSRFSGSRSGTDFTLTISSLQPEDFATYYCQQYGYHYAGLITFGQGTKVEIK
notes: Fab
B5: 3131 AM2-24 (Fab, V domains shown)
VH: EVQLVESGGGLVQPGGSLRLSCAASGFNLYYSSMHWVRQAPGKGLEWVASIYSSYGYTYYADSVKGRFTISADTSKNTAYLQMNSLRAEDTAVYYCARSSFSHGYGWYGLDYWGQGTLVTVSS
VL: DIQMTQSPSSLSASVGDRVTITCRASQSVSSAVAWYQQKPGKAPKLLIYSDSSLYSGVPSRFSGSRSGTDFTLTISSLQPEDFATYYCQQYGYHYAGLITFGQGTKVEIK
notes: Fab
B6: 3131 AM2-7 (Fab, V domains shown)
VH: EVQLVESGGGLVQPGGSLRLSCAASGFNLYYSSMHWVRQAPGKGLEWVASIYSSHGGTYYADSVKGRFTISADTSKNTAYLQMNSLRAEDTAVYYCARSSFSHGYGWYGLDYWGQGTLVTVSS
VL: DIQMTQSPSSLSASVGDRVTITCRASQSVSSAVAWYQQKPGKAPKLLIYSASSLYSGVPSRFSGSRSGTDFTLTISSLQPEDFATYYCQQYGYHDAGLITFGQGTKVEIK
notes: Fab
B7: 3131 AM2-14 (Fab, V domains shown)
VH: EVQLVESGGGLVQPGGSLRLSCAASGFNLYYSSMHWVRQAPGKGLEWVASIYSSYGYTYYADSVKGRFTISADTSKNTAYLQMNSLRAEDTAVYYCARSSFSHGYGWYGLDYWGQGTLVTVSS
VL: DIQMTQSPSSLSASVGDRVTITCRASQSVSSAVAWYQQKPGKAPKLLIYSASSLYSGVPSRFSGSRSGTDFTLTISSLQPEDFATYYCQQYGYHGAGLITFGQGTKVEIK
notes: Fab
B8: 3131 AM2-3 (Fab, V domains shown)
VH: EVQLVESGGGLVQPGGSLRLSCAASGFNLYYSSMHWVRQAPGKGLEWVASIYSSSGYTSYADSVKGRFTISADTSKNTAYLQMNSLRAEDTAVYYCARSSFSHGYGWYGLDYWGQGTLVTVSS
VL: DIQMTQSPSSLSASVGDRVTITCRASQSVSSAVAWYQQKPGKAPKLLIYSASSLYSGVPSRFSGSRSGTDFTLTISSLQPEDFATYYCQQYGYHYAGLITFGQGTKVEIK
notes: Fab
B9: 3131 AM2-15 (Fab, V domains shown)
VH: EVQLVESGGGLVQPGGSLRLSCAASGFNLYYSSMHWVRQAPGKGLEWVASIYSSSGDTGYADSVKGRFTISADTSKNTAYLQMNSLRAEDTAVYYCARSSFSHGYGWYGLDYWGQGTLVTVSS
VL: DIQMTQSPSSLSASVGDRVTITCRASQSVSSAVAWYQQKPGKAPKLLIYSASSLYSGVPSRFSGSRSGTDFTLTISSLQPEDFATYYCQQYGYHYAGLITFGQGTKVEIK
notes: Fab
B10: 3131 AM2-18 (Fab, V domains shown)
VH: EVQLVESGGGLVQPGGSLRLSCAASGFNLYYSSMHWVRQAPGKGLEWVASIYSSGGSTSYADSVKGRFTISADTSKNTAYLQMNSLRAEDTAVYYCARSSFSHGYGWYGLDYWGQGTLVTVSS
VL: DIQMTQSPSSLSASVGDRVTITCRASQSVSSAVAWYQQKPGKAPKLLIYSASSLYSGVPSRFSGSRSGTDFTLTISSLQPEDFATYYCQQYGYHYAGLITFGQGTKVEIK
notes: Fab
B11: 3131 AM2-2 (Fab, V domains shown)
VH: EVQLVESGGGLVQPGGSLRLSCAASGFNLYYSSMHWVRQAPGKGLEWVASIYSSHGRTGYADSVKGRFTISADTSKNTAYLQMNSLRAEDTAVYYCARSSFSHGYGWYGLDYWGQGTLVTVSS
VL: DIQMTQSPSSLSASVGDRVTITCRASQSVSSAVAWYQQKPGKAPKLLIYSASSRDSGVPSRFSGSRSGTDFTLTISSLQPEDFATYYCQQYGYHYAGLITFGQGTKVEIK
notes: Fab
B12: 3131 AM2-9 (Fab, V domains shown)
VH: EVQLVESGGGLVQPGGSLRLSCAASGFNLYYSSMHWVRQAPGKGLEWVASIYSSYGYTYYADSVKGRFTISADTSKNTAYLQMNSLRAEDTAVYYCARSSFSHGYGWYGLDYWGQGTLVTVSS
VL: DIQMTQSPSSLSASVGDRVTITCRASQSVSSAVAWYQQKPGKAPKLLIYSASSLYSGVPSRFSGSRSGTDFTLTISSLQPEDFATYYCQQYGYHNAGLITFGQGTKVEIK
notes: Fab
B13: 3131 AM2-17 (Fab, V domains shown)
VH: EVQLVESGGGLVQPGGSLRLSCAASGFNLYYSSMHWVRQAPGKGLEWVASIYSSHGNTDYADSVKGRFTISADTSKNTAYLQMNSLRAEDTAVYYCARSSFSHGYGWYGLDYWGQGTLVTVSS
VL: DIQMTQSPSSLSASVGDRVTITCRASQSVSSAVAWYQQKPGKAPKLLIYSASSLYSGVPSRFSGSRSGTDFTLTISSLQPEDFATYYCQQYGYHYAGLITFGQGTKVEIK
notes: Fab
B14: 3131 AM2-21 (Fab, V domains shown)
VH: EVQLVESGGGLVQPGGSLRLSCAASGFNLYYSSMHWVRQAPGKGLEWVASIYSSYGYTYYADSVKGRFTISADTSKNTAYLQMNSLRAEDTAVYYCARSSFSHGYGWYGLDYWGQGTLVTVSS
VL: DIQMTQSPSSLSASVGDRVTITCRASQSVSSAVAWYQQKPGKAPKLLIYSGSSGRSGVPSRFSGSRSGTDFTLTISSLQPEDFATYYCQQYGYHYAGLITFGQGTKVEIK
notes: Fab
B15: 3131 AM2-4 (Fab, V domains shown)
VH: EVQLVESGGGLVQPGGSLRLSCAASGFNLYYSSMHWVRQAPGKGLEWVASIYSSSGSTCYADSVKGRFTISADTSKNTAYLQMNSLRAEDTAVYYCARSSFSHGYGWYGLDYWGQGTLVTVSS
VL: DIQMTQSPSSLSASVGDRVTITCRASQSVSSAVAWYQQKPGKAPKLLIYSASSLYSGVPSRFSGSRSGTDFTLTISSLQPEDFATYYCQQYGYHYAGLITFGQGTKVEIK
notes: Fab

Experiments:
[1] = molecular target: T1, human IL-18Rβ ECD Fc fusion (118-AP-100, R&D Systems) (human, UniProt O95256 20-356); experiment: ELISA on recombinant human IL-18Rβ, normalised OD 450 nm, Fab with PBS or with saturating IgG 3131 [top plot]
T1 construct: Bought protein; also called hIL-18Rβ; recombinant human IL-18Rb; not shown: Fc tag of the bought fusion protein, not described
T1 sequence: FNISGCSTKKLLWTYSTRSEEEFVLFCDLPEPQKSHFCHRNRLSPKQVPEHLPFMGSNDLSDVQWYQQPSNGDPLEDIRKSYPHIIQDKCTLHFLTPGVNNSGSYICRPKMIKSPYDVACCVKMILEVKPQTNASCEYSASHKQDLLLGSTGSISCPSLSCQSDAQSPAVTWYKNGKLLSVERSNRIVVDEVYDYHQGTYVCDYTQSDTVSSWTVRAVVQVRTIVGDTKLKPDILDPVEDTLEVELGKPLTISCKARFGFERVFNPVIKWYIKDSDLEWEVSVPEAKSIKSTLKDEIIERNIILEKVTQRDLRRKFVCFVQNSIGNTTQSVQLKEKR
Text: (§1) The results are presented in FIG. 9, in which the binding signals for purified. […] Error bars represent standard deviation of replicate measurements.

[2] = molecular target: T1, human IL-18Rβ ECD Fc fusion …; experiment: ELISA on recombinant human IL-18Rβ, normalised OD 450 nm, Fab with PBS or with saturating IgG 3131 [middle plot]
Text: as §1

| Binder | binding result [1] | binding result [2] |
| --- | --- | --- |
| B1 | binds | – |
| B2 | binds | – |
| B3 | binds | – |
| B4 | binds | – |
| B5 | – | binds |
| B6 | binds | – |
| B7 | binds | – |
| B8 | binds | – |
| B9 | – | binds |
| B10 | – | binds |
| B11 | binds | – |
| B12 | binds | – |
| B13 | – | binds |
| B14 | – | binds |
| B15 | binds | – |

From patent US20240262919A1 (SHANGHAITECH UNIVERSITY, published 2024)
